Reference: article PMC10557143, “Promoter R-Loops Recruit U2AF1 to Modulate Its Phase Separation and RNA Splicing”

How the values were obtained:
[1] = biological target: T1, U2AF1-ZF2 (human, UniProt Q01081 149-176); assay: fluorescence anisotropy; Anisotropy: 10 nM probe, 10 mM Tris-HCl pH 7.5, 1 mM EDTA, 100 mM KCl, 0.1 mM DTT, 10 ug/mL BSA, 30 min on ice; EMSA same but Tris pH 8.0, 6% native PAGE in 1x; details: protein: recombinant; tags: His6 (pET30a); label: 5' TAMRA; parallel intramolecular G4
T1 chain: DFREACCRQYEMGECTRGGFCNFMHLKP

[2] = biological target: T2, U2AF1 (human, UniProt Q01081 1-240); assay: fluorescence anisotropy; 100 mM K+; Anisotropy: 10 nM probe, 10 mM Tris-HCl pH 7.5, 1 mM EDTA, 100 mM KCl, 0.1 mM DTT, 10 ug/mL BSA, 30 min on ice; EMSA same but Tris pH 8.0, 6% native PAGE in 1x; details: protein: recombinant, tags: His6 (pET30a), label: 5' TAMRA
T2 sequence: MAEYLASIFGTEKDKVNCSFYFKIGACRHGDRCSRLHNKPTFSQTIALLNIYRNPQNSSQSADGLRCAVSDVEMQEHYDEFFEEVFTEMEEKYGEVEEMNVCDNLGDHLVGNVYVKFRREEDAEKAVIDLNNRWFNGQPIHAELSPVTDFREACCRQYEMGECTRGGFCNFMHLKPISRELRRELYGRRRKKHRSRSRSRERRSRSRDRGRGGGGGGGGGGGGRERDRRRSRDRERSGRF

[3] = biological target: T2, U2AF1; assay: fluorescence anisotropy; Anisotropy: 10 nM probe, 10 mM Tris-HCl pH 7.5, 1 mM EDTA, 100 mM KCl, 0.1 mM DTT, 10 ug/mL BSA, 30 min on ice; EMSA same but Tris pH 8.0, 6% native PAGE in 1x; details: protein: recombinant, tags: His6 (pET30a)

TGAGGGTGGGGAGGGTGGGGAAGG (structured_DNA) [cMYC_G4]
binding signal [1]: > 10 fold lower affinity than full length | Kd ([2]; parallel intramolecular G4): 10.8 ± 0.9 nM

TGAGGGTGAGGAGTGTGGGGAAGG (ssDNA) [cMYC_M4]
Kd [2]: 22 ± 1 nM

B1: cMYC G4-R-loop (mixed)
?: GCGAGGGGCGGCCGGAGAGC
DNA 1: CCGCTCCGGCAGCTCAGGCCCTGGCGCTCTCCGGCCGCCCCTCGCCCGCCCGGGCTCCTCCTCCTGTGCC
DNA 2: GGCACAGGAGGAGGAGTTTTTTCTGAGGGTGGGGAGGGTGGGGAAGGCATTTTTTGAGCTGCCGGAGCGG
Kd ([3]; label: 5' Cy3 on RNA strand, R-loop bubble: strand 1 RNA, strand 2 template DNA, strand 3 displaced DNA, some slow-migrating putative intermolecular G4): 3.5 nM

B2: cMYC M4-R-loop (mixed)
?: GCGAGGGGCGGCCGGAGAGC
DNA 1: CCGCTCCGGCAGCTCAGGCCCTGGCGCTCTCCGGCCGCCCCTCGCCCGCCCGGGCTCCTCCTCCTGTGCC
DNA 2: GGCACAGGAGGAGGAGTTTTTTCTGAGGGTGAGGAGTGTGGGGAAGGCATTTTTTGAGCTGCCGGAGCGG
Kd ([3]; label: 5' Cy3 on RNA strand, R-loop bubble: strand 1 RNA, strand 2 template DNA, strand 3 displaced DNA): 13 nM

AGGGAGGGCGCTGGGAGGAGGG (structured_DNA) [cKIT_G4]
Kd ([2]; parallel intramolecular G4): 15 ± 2 nM

AGGGAGGGCTCTGTGAGGAGGG (ssDNA) [cKIT_M4]
Kd [2]: 19 ± 4 nM

GGGTTAGGGTTAGGGTTAGGGT (structured_DNA) [2KF8_G4]
Kd ([2]; antiparallel intramolecular G4): 9 ± 1 nM

GGGTTAGTGTTAGTGTTAGGGT (ssDNA) [2KF8_M4]
Kd [2]: 10 ± 2 nM

AAAGGGTTAGGGTTAGGGTTAGGGAA (structured_DNA) [hTel_G4]
Kd ([2]; hybrid-type intramolecular G4): 50 ± 6 nM

AAAGGGTTAGTGTTAGTGTTAGGGAA (ssDNA) [hTel_M4]
Kd [2]: 60 ± 6 nM

UUUUAGGU (ssRNA) [U2AF1_RNA Motif (AG motif)]
Kd ([3]; label: 5' Cy3): 350 nM

B3: RNA/DNA hybrid (DNA:RNA)
?: GCGAGGGGCGGCCGGAGAGC
DNA: GCTCTCCGGCCGCCCCTCGC
Kd ([3]; label: 5' Cy3 on RNA strand, blunt, strand 1 RNA, strand 2 DNA): 6.7 nM
